Test results: patent US20180072807A1 (UNIVERSITAT STUTTGART, published 2018)

B1: EGFR-specific TRAIL fusion protein according to SEQ ID NO: 102 (FLAG tag, huC225 VH, GGGGS linker L, VL, linker X, scTRAIL) (other)
chain: LEASDYKDDDDKGAEVQLVESGGGLVQPGGSLRLSCAASGFSLTNYGVHWVRQAPGKGLEWLGVIWSGGNTDYNTPFTSRFTISRDNSKNTLYLQMNSLRAEDTAVYYCARALTYYDYEFAYWGQGTTVTVSSGGGGSDIQLTQSPSFLSASVGDRVTITCRASQSIGTNIHWYQQKPGKAPKLLIKYASESISGVPSRFSGSGSGTEFTLTISSLQPEDFATYYCQQNNNWPTTFGAGTKLEIKRAAAEFTRGTSEETISTVQEKQQNISPLVRERGPQRVAAHITGTRGRSNTLSSPNSKNEKALGRKINSWESSRSGHSFLSNLHLRNGELVIHEKGFYYIYSQTYFRFQEEIKENTKNDKQMVQYIYKYTSYPDPILLMKSARNSCWSKDAEYGLYSIYQGGIFELKENDRIFVSVTNEHLIDMDHEASFFGAFLVGGGGSGGGSTSEETISTVQEKQQNISPLVRERGPQRVAAHITGTRGRSNTLSSPNSKNEKALGRKINSWESSRSGHSFLSNLHLRNGELVIHEKGFYYIYSQTYFRFQEEIKENTKNDKQMVQYIYKYTSYPDPILLMKSARNSCWSKDAEYGLYSIYQGGIFELKENDRIFVSVTNEHLIDMDHEASFFGAFLVGGGGSGGGSTSEETISTVQEKQQNISPLVRERGPQRVAAHITGTRGRSNTLSSPNSKNEKALGRKINSWESSRSGHSFLSNLHLRNGELVIHEKGFYYIYSQTYFRFQEEIKENTKNDKQMVQYIYKYTSYPDPILLMKSARNSCWSKDAEYGLYSIYQGGIFELKENDRIFVSVTNEHLIDMDHEASFFGAFLVG
notes: Made in HEK293 cells; The FLAG tag was kept for purification; also called divalent TRAIL fusion protein; dimeric TRAIL fusion protein
B2: dimeric EGFR-specific TRAIL fusion protein of SEQ ID NO: 125 with an albumin binding domain (ABD) between component B and components A (other)
chain: LEASDYKDDDDKGAEVQLVESGGGLVQPGGSLRLSCAASGFSLTNYGVHWVRQAPGKGLEWLGVIWSGGNTDYNTPFTSRFTISRDNSKNTLYLQMNSLRAEDTAVYYCARALTYYDYEFAYWGQGTTVTVSSGGGGSDIQLTQSPSFLSASVGDRVTITCRASQSIGTNIHWYQQKPGKAPKLLIKYASESISGVPSRFSGSGSGTEFTLTISSLQPEDFATYYCQQNNNWPTTFGAGTKLEIKRGGSQHDEAVDANSLAEAKVLANRELDKYGVSDYYKNLINNAKTVEGVKALIDEILAALPAAAGNGTSNGTSEFTRGTSEETISTVQEKQQNISPLVRERGPQRVAAHITGTRGRSNTLSSPNSKNEKALGRKINSWESSRSGHSFLSNLHLRNGELVIHEKGFYYIYSQTYFRFQEEIKENTKNDKQMVQYIYKYTSYPDPILLMKSARNSCWSKDAEYGLYSIYQGGIFELKENDRIFVSVTNEHLIDMDHEASFFGAFLVGGGGSGGGSTSEETISTVQEKQQNISPLVRERGPQRVAAHITGTRGRSNTLSSPNSKNEKALGRKINSWESSRSGHSFLSNLHLRNGELVIHEKGFYYIYSQTYFRFQEEIKENTKNDKQMVQYIYKYTSYPDPILLMKSARNSCWSKDAEYGLYSIYQGGIFELKENDRIFVSVTNEHLIDMDHEASFFGAFLVGGGGSGGGSTSEETISTVQEKQQNISPLVRERGPQRVAAHITGTRGRSNTLSSPNSKNEKALGRKINSWESSRSGHSFLSNLHLRNGELVIHEKGFYYIYSQTYFRFQEEIKENTKNDKQMVQYIYKYTSYPDPILLMKSARNSCWSKDAEYGLYSIYQGGIFELKENDRIFVSVTNEHLIDMDHEASFFGAFLVG
B3: EGFR-specific TRAIL fusion protein of SEQ ID NO: 96 (FLAG tag, huC225 VH, (GGGGS)3 linker L, VL, linker X, scTRAIL) (other)
chain: LEASDYKDDDDKGAEVQLVESGGGLVQPGGSLRLSCAASGFSLTNYGVHWVRQAPGKGLEWLGVIWSGGNTDYNTPFTSRFTISRDNSKNTLYLQMNSLRAEDTAVYYCARALTYYDYEFAYWGQGTTVTVSSGGGGSGGGGSGGGGSDIQLTQSPSFLSASVGDRVTITCRASQSIGTNIHWYQQKPGKAPKLLIKYASESISGVPSRFSGSGSGTEFTLTISSLQPEDFATYYCQQNNNWPTTFGAGTKLEIKRAAAEFTRGTSEETISTVQEKQQNISPLVRERGPQRVAAHITGTRGRSNTLSSPNSKNEKALGRKINSWESSRSGHSFLSNLHLRNGELVIHEKGFYYIYSQTYFRFQEEIKENTKNDKQMVQYIYKYTSYPDPILLMKSARNSCWSKDAEYGLYSIYQGGIFELKENDRIFVSVTNEHLIDMDHEASFFGAFLVGGGGSGGGSTSEETISTVQEKQQNISPLVRERGPQRVAAHITGTRGRSNTLSSPNSKNEKALGRKINSWESSRSGHSFLSNLHLRNGELVIHEKGFYYIYSQTYFRFQEEIKENTKNDKQMVQYIYKYTSYPDPILLMKSARNSCWSKDAEYGLYSIYQGGIFELKENDRIFVSVTNEHLIDMDHEASFFGAFLVGGGGSGGGSTSEETISTVQEKQQNISPLVRERGPQRVAAHITGTRGRSNTLSSPNSKNEKALGRKINSWESSRSGHSFLSNLHLRNGELVIHEKGFYYIYSQTYFRFQEEIKENTKNDKQMVQYIYKYTSYPDPILLMKSARNSCWSKDAEYGLYSIYQGGIFELKENDRIFVSVTNEHLIDMDHEASFFGAFLVG
notes: also called VH-VL-scTRAIL
B4: dimeric EGFR-specific TRAIL fusion protein of SEQ ID NO: 126 with an albumin binding domain (ABD) at the C-terminus (other)
chain: LEASDYKDDDDKGAEVQLVESGGGLVQPGGSLRLSCAASGFSLTNYGVHWVRQAPGKGLEWLGVIWSGGNTDYNTPFTSRFTISRDNSKNTLYLQMNSLRAEDTAVYYCARALTYYDYEFAYWGQGTTVTVSSGGGGSDIQLTQSPSFLSASVGDRVTITCRASQSIGTNIHWYQQKPGKAPKLLIKYASESISGVPSRFSGSGSGTEFTLTISSLQPEDFATYYCQQNNNWPTTFGAGTKLEIKRAAAGNGTSNGTSEFTRGTSEETISTVQEKQQNISPLVRERGPQRVAAHITGTRGRSNTLSSPNSKNEKALGRKINSWESSRSGHSFLSNLHLRNGELVIHEKGFYYIYSQTYFRFQEEIKENTKNDKQMVQYIYKYTSYPDPILLMKSARNSCWSKDAEYGLYSIYQGGIFELKENDRIFVSVTNEHLIDMDHEASFFGAFLVGGGGSGGGSTSEETISTVQEKQQNISPLVRERGPQRVAAHITGTRGRSNTLSSPNSKNEKALGRKINSWESSRSGHSFLSNLHLRNGELVIHEKGFYYIYSQTYFRFQEEIKENTKNDKQMVQYIYKYTSYPDPILLMKSARNSCWSKDAEYGLYSIYQGGIFELKENDRIFVSVTNEHLIDMDHEASFFGAFLVGGGGSGGGSTSEETISTVQEKQQNISPLVRERGPQRVAAHITGTRGRSNTLSSPNSKNEKALGRKINSWESSRSGHSFLSNLHLRNGELVIHEKGFYYIYSQTYFRFQEEIKENTKNDKQMVQYIYKYTSYPDPILLMKSARNSCWSKDAEYGLYSIYQGGIFELKENDRIFVSVTNEHLIDMDHEASFFGAFLVGGGSGGQHDEAVDANSLAEAKVLANRELDKYGVSDYYKNLINNAKTVEGVKALIDEILAALP

Columns and labels:
[1] = molecular target: T1, proapoptotic TRAIL receptor DR4 (TRAIL R1) (UniProt O00220 24-468, limits assumed); experiment: flow cytometry on EGFR low/negative HepG2 cells; detection with anti-TRAIL mAb
T1 construct: whole, on cells; Endogenous receptor on cell lines

mouse serum albumin = molecular target: T2, mouse serum albumin (mouse, UniProt P07724 25-608); experiment: size exclusion chromatography after incubation with albumin
T2 construct: also called MSA

human serum albumin = molecular target: T3, human serum albumin (human, UniProt P02768 25-609); experiment: as above
T3 construct: also called HSA

[2] = molecular target: EGF receptor (EGFR, erbB1) (human, UniProt P00533 25-1210); experiment: cell-based or functional assay

Binder	binding result [1]	binding result (mouse serum albumin)	binding result (human serum albumin)	apoptosis-inducing activity on EGFR-positive Huh-7 cells compared to scTRAIL (SEQ ID NO: 104) [2]
B1	binds	–	–	–
B2	–	binds	binds	–
B3	binds	–	–	10 fold
B4	–	binds	binds	–
